For the assay, the target named is T1, RLC-depleted cardiac beta-myosin (myosin heavy chain) (Sus scrofa, UniProt P79293).
T1 chain: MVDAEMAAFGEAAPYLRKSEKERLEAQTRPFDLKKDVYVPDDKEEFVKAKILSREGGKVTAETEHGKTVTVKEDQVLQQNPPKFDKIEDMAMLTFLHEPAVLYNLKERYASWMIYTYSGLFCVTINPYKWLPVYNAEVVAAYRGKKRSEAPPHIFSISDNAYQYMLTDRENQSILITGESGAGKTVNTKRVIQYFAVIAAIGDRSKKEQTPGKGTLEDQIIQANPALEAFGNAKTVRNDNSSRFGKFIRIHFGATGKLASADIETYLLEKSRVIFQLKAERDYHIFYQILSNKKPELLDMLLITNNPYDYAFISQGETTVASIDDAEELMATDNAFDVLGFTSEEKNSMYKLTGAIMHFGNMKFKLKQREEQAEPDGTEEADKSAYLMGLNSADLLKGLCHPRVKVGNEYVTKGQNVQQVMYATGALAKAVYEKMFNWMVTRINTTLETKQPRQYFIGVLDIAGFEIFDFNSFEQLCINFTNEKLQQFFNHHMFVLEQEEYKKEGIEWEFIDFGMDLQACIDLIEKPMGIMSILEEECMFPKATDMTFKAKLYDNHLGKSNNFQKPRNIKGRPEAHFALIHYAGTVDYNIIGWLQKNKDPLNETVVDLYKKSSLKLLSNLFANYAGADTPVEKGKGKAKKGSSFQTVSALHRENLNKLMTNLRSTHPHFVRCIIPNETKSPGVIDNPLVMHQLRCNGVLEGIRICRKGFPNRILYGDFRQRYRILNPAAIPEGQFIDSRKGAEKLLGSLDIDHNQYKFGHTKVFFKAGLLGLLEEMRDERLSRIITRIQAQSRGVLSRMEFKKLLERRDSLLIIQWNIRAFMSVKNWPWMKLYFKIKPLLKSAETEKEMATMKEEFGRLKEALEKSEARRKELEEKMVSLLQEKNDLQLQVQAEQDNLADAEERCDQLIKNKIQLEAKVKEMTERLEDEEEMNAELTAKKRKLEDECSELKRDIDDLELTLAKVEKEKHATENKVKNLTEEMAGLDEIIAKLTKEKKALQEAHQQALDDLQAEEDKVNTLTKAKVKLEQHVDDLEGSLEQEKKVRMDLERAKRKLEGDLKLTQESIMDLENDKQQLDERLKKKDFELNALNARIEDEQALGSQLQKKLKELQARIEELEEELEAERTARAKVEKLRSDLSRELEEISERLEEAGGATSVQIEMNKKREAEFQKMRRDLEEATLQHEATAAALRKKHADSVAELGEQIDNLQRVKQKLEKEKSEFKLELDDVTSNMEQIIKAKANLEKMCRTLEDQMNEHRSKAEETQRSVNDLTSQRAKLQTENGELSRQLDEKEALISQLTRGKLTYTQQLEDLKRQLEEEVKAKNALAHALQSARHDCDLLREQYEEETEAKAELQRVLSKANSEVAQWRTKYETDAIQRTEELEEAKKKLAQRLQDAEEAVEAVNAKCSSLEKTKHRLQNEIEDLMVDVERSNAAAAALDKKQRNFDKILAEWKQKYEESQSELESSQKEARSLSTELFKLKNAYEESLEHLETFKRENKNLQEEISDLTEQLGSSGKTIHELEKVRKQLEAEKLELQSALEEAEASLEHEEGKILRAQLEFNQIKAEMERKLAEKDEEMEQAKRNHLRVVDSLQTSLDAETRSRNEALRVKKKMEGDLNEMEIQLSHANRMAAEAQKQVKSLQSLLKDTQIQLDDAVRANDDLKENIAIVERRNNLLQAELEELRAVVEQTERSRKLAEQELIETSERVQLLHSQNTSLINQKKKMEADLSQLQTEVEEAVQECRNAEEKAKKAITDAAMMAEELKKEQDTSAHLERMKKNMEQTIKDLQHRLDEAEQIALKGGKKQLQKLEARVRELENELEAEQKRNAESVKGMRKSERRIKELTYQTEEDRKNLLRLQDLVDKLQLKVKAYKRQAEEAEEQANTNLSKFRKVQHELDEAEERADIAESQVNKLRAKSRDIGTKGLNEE
The experiment in a line: SDS-PAGE titration/co-precipitation binding isotherm.

B1: Myosin regulatory light chain 2, ventricular (protein)
chain: APKKAKKRAGGANSNVFSMFEQTQIQEFKEAFTIMDQNRDGFIDKNDLRDTFAALGRVNVKNEEIDEMIKEAPGPINFTVFLTMFGEKLKGADPEETILNAFKVFDPEGKGVLKADYVREMLTTQAERFSKEEVDQMFAAFPPDVTGNLDYKNLVHIITHGEEKD
Usually Kd stands for the free concentration of one partner at which half of the binding sites on the other are occupied at equilibrium, for simple one-to-one binding. Consider B1, for which the affinity, expressed as Kd, was 3.2 µM.

B2: Myosin regulatory light chain 2, ventricular (protein)
chain: APKKAKKRAGGANSNVFSMFEQTQIQEFKEAFTIMDQNRDGFIDKNDLRDTFAALGRVNVKNEEIDEMIKEAPGPINFTVFLTMFGEKLKGAAPEETILNAFKVFDPEGKGVLKADYVREMLTTQAERFSKEEVDQMFAAFPPDVTGNLDYKNLVHIITHGEEKD
As for B2, the Kd amounted to 4.9 µM. This Kd lies about 1.5-fold higher than the previous one.
